Where no end group is shown, it is not given here. [ ]: non-standard residue; d: D form. The star is where a group is joined. Met(O) = CS(=O)CC[C@H](N)C(=O)O; NMeV = CN[C@H](C(=O)O)C(C)C; NMeA = CN[C@@H](C)C(=O)O; Hexanoyl = CCCCCC(=O)*; Aib = CC(C)(N)C(=O)O; Mpa = O=C(O)CCS

Data on 40 molecules can be found in patent US20080026996A1, “Selective Vpac2 Receptor Reptide Agonists” (ELI LILLY AND COMPANY, priority 2004, published 2008).

The chains are these.
T1: human VPAC2 receptor (human, UniProt P41587 24-438)
T1 sequence (looked up): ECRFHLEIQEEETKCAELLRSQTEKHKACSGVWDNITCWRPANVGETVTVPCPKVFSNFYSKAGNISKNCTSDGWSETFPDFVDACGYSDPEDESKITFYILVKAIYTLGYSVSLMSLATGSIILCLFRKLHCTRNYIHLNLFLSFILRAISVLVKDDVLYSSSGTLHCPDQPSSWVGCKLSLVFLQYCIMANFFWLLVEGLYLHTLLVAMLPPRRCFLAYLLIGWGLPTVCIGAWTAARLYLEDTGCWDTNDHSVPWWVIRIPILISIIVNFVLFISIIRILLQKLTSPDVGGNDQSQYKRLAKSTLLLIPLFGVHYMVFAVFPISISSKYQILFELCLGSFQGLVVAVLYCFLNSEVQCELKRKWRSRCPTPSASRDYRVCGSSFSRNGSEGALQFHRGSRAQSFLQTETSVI

This assay deals with T1, human VPAC2 receptor. In words: cell-based or functional assay.
As for Hexanoyl-HSDAVFTDQYTRLRRQVAARKYLQSIRQGGPSSGAPPPS [P220], the “EC50 cAMP, Alpha Screen” value amounted to 0.12 nM. Turning to Hexanoyl-HSDAVFTDNYTRLRKQVAAKKY[Aib]QSIKNKRYGGPSSGAPPPS (ends and bridges not checked) [P236], the “EC50 cAMP, Alpha Screen” value came out at 0.12 nM. Hexanoyl-HSDAVFTDNYTRLA[Aib]QVAA[Aib]KYLQSIKNKRYGGPSSGAPPPS (ends and bridges not checked) [P301]: the “EC50 cAMP, Alpha Screen” value is 0.89 nM. On the same count and under the same terms, the result for Hexanoyl-HSDAVFTDNYTRLQ[Aib]QVAA[Aib]KYLQSIKNKRYGGPSSGAPPPS (ends and bridges not checked) [P302] reads 0.45 nM; that for Hexanoyl-HSDAVFTDNYTRLR[Aib]QVAA[Aib]AYLQSIKNKRYGGPSSGAPPPS (ends and bridges not checked) [P341], 0.38 nM. Take Hexanoyl-HSDAVFTDNYTRLL[Aib]QVAA[Aib]KYLQSIKNKRYGGPSSGAPPPS (ends and bridges not checked) [P317]: the “EC50 cAMP, Alpha Screen” value is 0.36 nM. On to Hexanoyl-HSDAVFTDNYTRLR[Aib]QAAA[Aib]KYLQSIKNKRYGGPSSGAPPPS (ends and bridges not checked) [P324], for which the “EC50 cAMP, Alpha Screen” value is 0.23 nM.

Regarding Hexanoyl-HSDAVFTDNYTRLRKQVAAKK[Aib]LQSIKNKRYGGPSSGAPPPS (ends and bridges not checked) [P228], the “EC50 cAMP, Alpha Screen” value is 3.48 nM.

Regarding Hexanoyl-HSDAVFTDNYTRLRK(Ac)QVAAKK(Ac)YLQSIKNKRYGGPSSGAPPPS [P194], the “EC50 cAMP, Alpha Screen” value is 0.13 nM.

Consider Hexanoyl-HSDAVFTDNYTRLRKQVAAKKALQSIKNKRYGGPSSGAPPPS [P229], for which the “EC50 cAMP, Alpha Screen” value is 2.6 nM. Same read-out and setting: the result for Hexanoyl-HSDLVFTDNYTRLRKQVAAKKYLQSIKNKRYGGPSSGAPPPS [P223] reads 5.82 nM; that for Hexanoyl-HSDA[NMeV]FTDNYTRLRKQVAAKKYLQSIKNKRYGGPSSGAPPPS [P211], 989 nM; that for Hexanoyl-HSDIVFTDNYTRLRKQVAAKKYLQSIKNKRYGGPSSGAPPPS [P221], 1.98 nM. Same read-out and setting: the result for Hexanoyl-HSDAVFTDNYTRLRKQVAGKKYLQSIKNKRYGGPSSGAPPPS [P275] reads 0.32 nM; that for Hexanoyl-HSDAVFTDNYTRLRKQLAAKKYLQSIKNKRYGGPSSGAPPPS [P290], 0.22 nM; that for Hexanoyl-HSDALFTDNYTRLRKQVAAKKYLQSIKNKRYGGPSSGAPPPS [P289], 0.16 nM. Consider Hexanoyl-HSDAVFTDNYTRL[Aib]KQVAAKQYLQSIKNKRYGGPSSGAPPPS (ends and bridges not checked) [P249], for which the “EC50 cAMP, Alpha Screen” value worked out at 0.93 nM. Hexanoyl-HSDAVFTDNYTRL[Aib]KQVAAVKYLQSIKNKRYGGPSSGAPPPS (ends and bridges not checked) [P269]: the “EC50 cAMP, Alpha Screen” value was determined as 1.02 nM.

Hexanoyl-HSDAVFTDNYTRL[Aib]KQVAALKYLQSIKNKRYGGPSSGAPPPS (ends and bridges not checked) [P259]: the “EC50 cAMP, Alpha Screen” value was determined as 1.08 nM. Hexanoyl-HSDAVFTDNYTRL[Aib]KQVAAAKYLQSIKNKRYGGPSSGAPPPS (ends and bridges not checked) [P260]: the “EC50 cAMP, Alpha Screen” value was 0.83 nM. The same measure, in the same setting: the result for Hexanoyl-HSD[dA]VFTDNYTRLRKQVAAKKYLQSIKNKRYGGPSSGAPPPS [P207] reads 0.86 nM; that for [Met(O)]HSDAVFTDNYTRLRKQVAAKKYLQSIKNKRYGGPSSGAPPPS (ends and bridges not checked) [P199], 29.6 nM. With Hexanoyl-HSDAVFTDNYTRLRKQVAAKKYTQSIKNKRYGGPSSGAPPPS [P232], the “EC50 cAMP, Alpha Screen” value was determined as 1.94 nM. As to Hexanoyl-HSDA[Aib]FTDNYTRLRKQVAAKKYLQSIKNKRYGGPSSGAPPPS (ends and bridges not checked) [P212], the “EC50 cAMP, Alpha Screen” value came to 0.12 nM. Regarding Hexanoyl-HSDAVFTDNYTRLQKQVAA[Aib]KYLQSIKNKRYGGPSSGAPPPS (ends and bridges not checked) [P250], the “EC50 cAMP, Alpha Screen” value amounted to 0.18 nM. The same measure, in the same setting: the result for HSDAVFTDNYTRLRKQVAAKKYLQSIKRGGPSSGAPPPS [P82] reads 15.2 nM. HSDAVFTDNYTRLRKQVAAKKYLQSIKNGRPSSGAPPPS [P92]: the “EC50 cAMP, Alpha Screen” value was 10.2 nM and the “EC50 cAMP, DiscoveRx” value turned out to be 8.2 nM. Consider Hexanoyl-HSDAVFTDNYTRLRKQVAAKKYLQSIKNGRPSSGAPPPS [P271], for which the “EC50 cAMP, Alpha Screen” value amounted to 0.12 nM. Same read-out and setting: for HSDAVFTDNYTRLRKQVAAKKYLQSIKKGGPSSGAPPPS [P85] the value was 22.2 nM. Still for that read-out and setting: the result for Hexanoyl-HSD[Aib]VFTDNYTRLRKQVAAKKYLQSIKNKRYGGPSSGAPPPS (ends and bridges not checked) [P209] reads 0.1 nM; that for Hexanoyl-HSDAVFTDNYTRLQ[Aib]QVAAKKYLQSIKNKRYGGPSSGAPPPS (ends and bridges not checked) [P258], 0.17 nM; that for Hexanoyl-HSDAVFTDNYTRLR[Aib]QVAAAKYLQSIKNKRYGGPSSGAPPPS (ends and bridges not checked) [P263], 0.07 nM.

In the case of Hexanoyl-HSDAVFTDNYTRLR[Aib]QVAAVKYLQSIKNKRYGGPSSGAPPPS (ends and bridges not checked) [P262], the “EC50 cAMP, Alpha Screen” value amounted to 0.24 nM. Consider Hexanoyl-HSDAVFTDNYTRLR[Aib]QVAALKYLQSIKNKRYGGPSSGAPPPS (ends and bridges not checked) [P265], for which the “EC50 cAMP, Alpha Screen” value was determined as 0.21 nM. Regarding Hexanoyl-HSDA[dV]FTDNYTRLRKQVAAKKYLQSIKNKRYGGPSSGAPPPS [P210], the “EC50 cAMP, Alpha Screen” value was 0.91 nM.

As to Hexanoyl-HSD[NMeA]VFTDNYTRLRKQVAAKKYLQSIKNKRYGGPSSGAPPPS [P208], the “EC50 cAMP, Alpha Screen” value was found to be 50.1 nM. On to Hexanoyl-HSDAVFTDNYTRL[Aib]KQVAA[Aib]KYLQSIKQKGGPSSGAPPPS (ends and bridges not checked) [P293], for which the “EC50 cAMP, Alpha Screen” value was 1.89 nM. With [Mpa]HSDAVFTDNYTRLLAKLALQKYLQSIKNKRYGGPSSGAPPPS [P205], the “EC50 cAMP, Alpha Screen” value worked out at 1.14 nM. As to Hexanoyl-HSDAVFTDNYTRLR[Aib]QVAA[Aib]KYLQSIKQKGGPSSGAPPPS (ends and bridges not checked) [P294], the “EC50 cAMP, Alpha Screen” value was 0.24 nM. Still for that read-out and setting: the result for Hexanoyl-HSDAVFTDNYTRLR[Aib]QVAAK[Aib]YLQSIKQKGGPSSGAPPPS (ends and bridges not checked) [P295] reads 0.39 nM.
